± gives the uncertainty stated by the source.
Test: protein stability index of a GFP-peptide fusion (yeast GPS) (PSI 1-4); higher = more stable; sorted into four equal gates, so the index is relative within each strain
In short: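 For each peptide, the protein stability index sums the read frequency in every gate after multiplying it by the gate number. Read frequencies came from plasmids that were PCR-amplified from each gate and Illumina-sequenced, with reads assigned to strains by barcodes. The gates were four equal bins of GFP/Cherry fluorescence ratio applied to mid-log yeast in leucine-free medium carrying a pooled library of tiled 17-residue yeast protein peptides fused downstream of GFP on a Cherry-expressing plasmid.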

Sequence | protein stability index (doa10∆) | protein stability index (pdr5∆) | protein stability index (san1∆) | protein stability index (ubr1∆)
SCISISDIISMLQISDD [RRI2] | 1.82 ± 0.083 | 1.34 ± 0.061 | 1.19 ± 0.12 | 1.14 ± 0.04
PDMYERKVENIRTILVN [MED7] | 1.32 ± 0.045 | 1.65 ± 0.045 | 1.46 ± 0.096 | 1.36 ± 0.036
KYAQDGAGIERELARIK [RPL3] | 3.54 ± 0.2 | 3.46 ± 0.16 | – | –
NINATNTSVLMKLKLMI [YCS4] | 2.08 ± 0.093 | 1.5 ± 0.079 | 1.48 ± 0.13 | 2.24 ± 0.077
ENPDLSTKKKILGIHTS [RPT2] | 2.8 ± 0.14 | 3.02 ± 0.24 | 2.98 ± 0.087 | 2.9 ± 0.15
VCDLALRFGEGASGEER [PUP2] | 2.75 ± 0.2 | 3.4 ± 0.2 | – | 3.1 ± 0.21
SFDFGNENEDEDEGTLN [ARP9] | 3.56 ± 0.14 | 3.38 ± 0.25 | 3.41 ± 0.1 | –
VPIERVAQLKPFFKYID [RPC37] | 2.54 ± 0.062 | 2.24 ± 0.054 | 2.34 ± 0.054 | 2.71 ± 0.052
VPVIESAGFETDLRLST [SNU114] | 3.14 ± 0.21 | 3.12 ± 0.23 | – | 3.17 ± 0.14
QNAADLQQICRVRNKDI [RPL9A] | 2.82 ± 0.088 | 3.3 ± 0.045 | 2.59 ± 0.087 | 2.89 ± 0.06
ETGYMSRRLMKSLEDLS [RPO31] | 2.45 ± 0.12 | 3.13 ± 0.25 | 3.02 ± 0.15 | –
GPAAAKPMAFSNTTTHV [MTR3] | 3.06 ± 0.08 | 3.28 ± 0.052 | 3.39 ± 0.05 | 3.27 ± 0.036
GNPYIELNQDRLGGDDL [SNF5] | 3.05 ± 0.092 | 3.24 ± 0.098 | 3.03 ± 0.11 | 3.27 ± 0.049
SSVTSDSMKYTISSLFV [RPC82] | 1.93 ± 0.046 | 2.3 ± 0.043 | 2.14 ± 0.06 | 2.16 ± 0.042
VPPINCIFNFLQQQTPV [SME1] | 1.34 ± 0.042 | 1.58 ± 0.035 | 1.49 ± 0.065 | 1.64 ± 0.042
YTANTSAQSIASAKSVR [YAR002W/NUP60] | 2.64 ± 0.088 | 2.93 ± 0.11 | 2.65 ± 0.09 | 2.71 ± 0.12
PHHNQSPRNTYQCAMGK [RET1] | 2.68 ± 0.17 | 2.97 ± 0.14 | 3 ± 0.14 | 2.89 ± 0.24
FAGEAGDTVQFAEYIQA [PRE1] | 1.72 ± 0.089 | 1.74 ± 0.094 | 1.75 ± 0.13 | 2.09 ± 0.054
TLELSAQFRVPRYHSKN [SWP82] | 2.52 ± 0.067 | 2.72 ± 0.056 | 2.49 ± 0.065 | 2.74 ± 0.041
FNDFSNIKTSEWDLYPQ [REC8] | 2.84 ± 0.082 | 2.92 ± 0.053 | 2.78 ± 0.075 | 3.15 ± 0.082
GGADQVTRTQQWSMVAQ [SWI1] | 3.15 ± 0.077 | 3.31 ± 0.075 | 3.03 ± 0.063 | 3.07 ± 0.052
PTSDEPVPESAGKADTS [SRB4] | 2.86 ± 0.085 | 3.07 ± 0.092 | 2.88 ± 0.065 | 3.07 ± 0.045
IAPRRKRLADGLSVTQK [DIS3] | 3.38 ± 0.088 | 3.3 ± 0.074 | 3.16 ± 0.068 | 3.1 ± 0.061
IRGNLMGKRVDFSARTV [RPO21] | – | 2.76 ± 0.24 | – | 2.5 ± 0.26
KDDMKVDDAIELALKTL [PRE9] | 2.76 ± 0.25 | 3.52 ± 0.1 | 3.18 ± 0.077 | 3.65 ± 0.09
NRVGLTLDNIDDINKAK [ARP9] | 3.15 ± 0.056 | 2.93 ± 0.051 | 3.22 ± 0.045 | 2.43 ± 0.034
SNININVNNNNIGQQQV [SWI1] | 2.64 ± 0.19 | 3.01 ± 0.2 | 3.07 ± 0.074 | 3.13 ± 0.21

Source: the supplement of paper PMC9732359
